B1: hMAK195-AM20 (antibody, V domains shown)
VH: EVQLVESGGGLVQPGGSLRLSCAASGFTFSNYGVTWVRQAPGKGLEWVSMIWADGSTHYASSVKGRFTISRDNSKNTLYLQMNSLRAEDTAVYYCAREWQHGPVAYWGQGTLVTVSS
VL: DIQMTQSPSSLSASVGDRVTITCKASQLVSSAVAWYQQKPGKAPKLLIYWASTRHTGVPSRFSGSGSGTDFTLTISSLQPEDFATYYCQQHYSTPFTFGQGTKLEIKR
B2: hMAK195-AM21 (antibody, V domains shown)
VH: EVQLVESGGGLVQPGGSLRLSCAASGFTFSNYGVTWVRQAPGKGLEWVSMIWADGSTHYASSVKGRFTISRDNSKNTLYLQMNSLRAEDTAVYYCAREWQHGPVAYWGQGTLVTVSS
VL: DIQMTQSPSSLSASVGDRVTITCRASQLVSSAVAWYQQKPGKAPKLLIYWASARHTGVPSRFSGSGSGTDFTLTISSLQPEDFATYYCQQHYKTPFTFGQGTKLEIKR
B3: hMAK195-AM15 (antibody, V domains shown)
VH: EVQLVESGGGLVQPGGSLRLSCAASGFTFSNYGVTWVRQAPGKGLEWVSMIWSDGSTDYASSVKGRFTISRDNSKNTLYLQMNSLRAEDTAVYYCAREWQHGPVAYWGQGTLVTVSS
VL: DIQMTQSPSSLSASVGDRVTITCKASQAVSSAVAWYQQKPGKAPKLLIYWASTRHTGVPSRFSGSGSGTDFTLTISSLQPEDFATYYCQQHYSTPFTFGQGTKLEIKR
B4: hMAK195-AM23 (antibody, V domains shown)
VH: EVQLVESGGGLVQPGGSLRLSCAASGFTFSNYGVTWVRQAPGKGLEWVSMIWADGSTHYADSVKSRFTISRDNSKNTLYLQMNSLRAEDTAVYYCAREWQHGPLAYWGQGTLVTVSS
VL: DIQMTQSPSSLSASVGDRVTITCRASQLVSSAVAWYQQKPGKAPKLLIYWASTLHSGVPSRFSGSGSGTDFTLTISSLQPEDFATYYCQQHYSTPFTFGQGTKLEIKR
B5: hMAK195-AM19 (antibody, V domains shown)
VH: EVQLVESGGGLVQPGGSLRLSCAASGFTFSNYGVSWVRQAPGKGLEWVSMIWADGSTHYASSLKGRFTISRDNSKNTLYLQMNSLRAEDTAVYYCAREWQHGPAAYWGQGTLVTVSS
VL: DIQMTQSPSSLSASVGDRVTITCKASQAVSSAVAWYQQKPGKAPKLLIYWASTRHTGVPSRFSGSGSGTDFTLTISSLQPEDFATYYCQQHYSTPFTFGQGTKLEIKR
B6: hMAK195-AM13 (antibody, V domains shown)
VH: EVQLVESGGGLVQPGGSLRLSCAASGFTFSNYGVSWVRQAPGKGLEWVSLIRGDGSTDYASSLKGRFTISRDNSKNTLYLQMNSLRAEDTAVYYCAREWHHGPVAYWGQGTLVTVSS
VL: DIQMTQSPSSLSASVGDRVTITCKASQAVSSAVAWYQQKPGKAPKLLIYWASTRHTGVPSRFSGSGSGTDFTLTISSLQPEDFATYYCQQHYSTPFTFGQGTKLEIKR
B7: hMAK195-AM11 (antibody, V domains shown)
VH: EVQLVESGGGLVQPGGSLRLSCAASGFTFSNYGVNWVRQAPGKGLEWVSMIAADGFTDYASSVKGRFTISRDNSKNTLYLQMNSLRAEDTAVYYCAREWHHGPVAYWGQGTLVTVSS
VL: DIQMTQSPSSLSASVGDRVTITCKASQAVSSAVAWYQQKPGKAPKLLIYWASTRHTGVPSRFSGSGSGTDFTLTISSLQPEDFATYYCQQHYSTPFTFGQGTKLEIKR
B8: hMAK195-AM18 (antibody, V domains shown)
VH: EVQLVESGGGLVQPGGSLRLSCAASGFTFSNYGVTWVRQAPGKGLEWVSMIWADGSTHYASSVKGRFTISRDNSKNTLYLQMNSLRAEDTAVYYCAREWQHGPSAYWGQGTLVTVSS
VL: DIQMTQSPSSLSASVGDRVTITCKASQAVSSAVAWYQQKPGKAPKLLIYWASTRHTGVPSRFSGSGSGTDFTLTISSLQPEDFATYYCQQHYSTPFTFGQGTKLEIKR
B9: hMAK195-AM26 (antibody, V domains shown)
VH: EVQLVESGGGLVQPGGSLRLSCAASGFTFSNYGVSWVRQAPGKGLEWVSMIWADGSTHYADTVKGRFTISRDNSKNTLYLQMNSLRAEDTAVYYCAREWQHGPLAYWGQGTLVTVSS
VL: DIQMTQSPSSLSASVGDRVTITCRASQLVSSAVAWYQQKPGKAPKLLIYWASTRHTGVPSRFSGSGSGTDFTLTISSLQPEDFATYYCQQHYRTPFTFGQGTKLEIKR
B10: hMAK195-AM24 (antibody, V domains shown)
VH: EVQLVESGGGLVQPGGSLRLSCAASGFTFSNYGVEWVRQAPGKGLEWVSGIWADGSTHYADTVKSRFTISRDNSKNTLYLQMNSLRAEDTAVYYCAREWQHGPVAYWGQGTLVTVSS
VL: DIQMTQSPSSLSASVGDRVTITCKASQLVSSAVAWYQQKPGKAPKLLIYWASTLHTGVPSRFSGSGSGTDFTLTISSLQPEDFATYYCQQHYRTPFTFGQGTKLEIKR
B11: hMAK195-AM22 (antibody, V domains shown)
VH: EVQLVESGGGLVQPGGSLRLSCAASGFTFSNYGVTWVRQAPGKGLEWVSMIWADGSTHYASSVKGRFTISRDNSKNTLYLQMNSLRAEDTAVYYCAREWQHGPVAYWGQGTLVTVSS
VL: DIQMTQSPSSLSASVGDRVTITCRASQLVSSAVAWYQQKPGKAPKLLIYWASTRHSGVPSRFSGSGSGTDFTLTISSLQPEDFATYYCQQHYRTPFTFGQGTKLEIKR
B12: hMAK199-AM5 (antibody, V domains shown)
VH: EVQLVQSGAEVKKPGASVKVSCKASGYTFRNYGIIWVRQAPGQGLEWMGWINTYTGKPTYAQKFQGRVTMTTDTSTSTAYMELSSLRSEDTAVYFCARKLFTTVDVTDNAMDYWGQGTTVTVSS
VL: DIQMTQSPSSLSASVGDRVTITCRASQDISNYLNWYQQKPGKAPKLLIYYTSRLQSGVPSRFSGSGSGTDYTLTISSLQPEDFATYFCQQGNTWPPTFGQGTKLEIK
B13: hMAK199-AM9 (antibody, V domains shown)
VH: EVQLVQSGAEVKKPGASVKVSCKASGYTFSNYGINWVRQAPGQGLEWMGWINTYTGQPSYAQKFQGRVTMTTDTSTSTAYMELSSLRSEDTAVYYCARKLFKTEAVTDYAMDYWGQGTTVTVSS
VL: DIQMTQSPSSLSASVGDRVTITCRASQNIYNVLNWYQQKPGKAPKLLIYYASRLQSGVPSRFSGSGSGTDFTLTISSLQPEDFATYFCQQGNTMPPTFGQGTKLEIK
B14: hMAK199-AM6 (antibody, V domains shown)
VH: EVQLVQSGAEVKKPGASVKVSCKASGYTFNNYGINWVRQAPGQGLEWMGWINTYTGKPTYAQKFQGRVTMTTDTSTSTAYMELSSLRSEDTAVYFCARKFRNTVAVTDYAMDYWGQGTTVTVSS
VL: DIQMTQSPSSLSASVGDRVTITCRASQDIYDVLNWYQQKPGKAPKLLIYYASRLQSGVPSRFSGSGSGTDFTLTISSLQPEDFATYYCQQGITLPPTFGQGTKLEIK
B15: hMAK199-AM7 (antibody, V domains shown)
VH: EVQLVQSGAEVKKPGASVKVSCKASGYTFRNYGITWVRQAPGQGLEWMGWINTYTGKPTYAQKFQGRVTMTTDTSTSTAYMELSSLRSEDTAVYFCARKLFTTMDVTDNAMDYWGQGTTVTVSS
VL: DIQMTQSPSSLSASVGDRVTITCRASQDISNYLNWYQQKPGKAPKLLIYYTSRLQSGVPSRFSGSGSGTDYTLTISSLQPEDFATYFCQQGNTWPPTFGQGTKLEIK
B16: hMAK199-AM4 (antibody, V domains shown)
VH: EVQLVQSGAEVKKPGASVKVSCKASGYTFNNYGIIWVRQAPGQGLEWMGWINTYTGKPTYAQKFQGRVTMTTDTSTSTAYMELSSLRSEDTAVYYCARKLFNTVAVTDNAMDYWGQGTTVTVSS
VL: DIQMTQSPSSLSASVGDRVTITCRASQDIENYLNWYQQKPGKAPKLLIYYTSRLQSGVPSRFSGSGSGTDFTLTISSLQPEDFATYFCQQGNTQPPTFGQGTKLEIK
B17: hMAK199-AM3 (antibody, V domains shown)
VH: EVQLVQSGAEVKKPGASVKVSCKASGYTFNNYGIIWVRQAPGQGLEWMGWINTYTGVPTYAQKFQGRVTMTTDTSTSTAYMELSSLRSEDTAVYYCARKLFNTVDVTDNAMDYWGQGTTVTVSS
VL: DIQMTQSPSSLSASVGDRVTITCRASQDIYNYLNWYQQKPGKAPKLLIYYTSRLQSGVPSRFSGSGSGTDYTLTISSLQPEDFATYFCQQGNTQPPTFGQGTKLEIK
B18: hMAK199-AM2 (antibody, V domains shown)
VH: EVQLVQSGAEVKKPGASVKVSCKASGYTFNNYGIIWVRQAPGQGLEWMGWINTYTGKPTYAQKLQGRVTMTTDTSTSTAYMELSSLRSEDTAVYFCARKLFNTVDVTDNAMDYWGQGTTVTVSS
VL: DIQMTQSPSSLSASVGDRVTITCRASQDISNYLNWYQQKPGKAPKLLIYYTSRLQSGVPSRFSGSGSGTDYTLTISSLQPEDFATYFCQQGNSWPPTFGQGTKLEIK
B19: hMAK199-AM10 (antibody, V domains shown)
VH: EVQLVQSGAEVKKPGASVKVSCKASGYTFNNYGIIWVRQAPGQGLEWMGWINTYSGKPTYAQKFQGRVTMTTDTSTSTAYMELSSLRSEDTAVYFCARKLFTTMDVTDNAMDYWGQGTTVTVSS
VL: DIQMTQSPSSLSASVGDRVTITCRASQDISNFLNWYQQKPGKAPKLLIYYTSRLQSGVPSRFSGSGSGTDYTLTISSLQPEDFATYFCQQGNTQPPTFGQGTKLEIK

Molecular target: Rhesus/Macaque TNF (rhesus/macaque, UniProt P48094 77-233)
Sequence (P48094 77-233 limits assumed): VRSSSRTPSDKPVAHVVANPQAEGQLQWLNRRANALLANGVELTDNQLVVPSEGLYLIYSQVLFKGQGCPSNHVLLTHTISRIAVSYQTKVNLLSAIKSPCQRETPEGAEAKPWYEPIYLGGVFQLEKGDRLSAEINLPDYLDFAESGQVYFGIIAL
Test: cell-based or functional assay

| Binder | rhesus TNF neutralization IC50 (L929 bioassay) [nM] |
| --- | --- |
| B1 | 0.596 |
| B2 | 0.09 |
| B3 | > 150 |
| B4 | 2.63 |
| B5 | 1.21 |
| B6 | 4.64 |
| B7 | > 25 |
| B8 | 0.441 |
| B9 | 0.249 |
| B10 | 0.557 |
| B11 | 0.271 |

Molecular target: Rhesus/Macaque TNF (Rhesus/Macaque, UniProt P48094 77-233)
Sequence (P48094 77-233 limits assumed): as above
Test: cell-based or functional assay

| Binder | rhesus TNF neutralization IC50 [nM] |
| --- | --- |
| B12 | 0.02 |
| B13 | 0.089 |
| B14 | 0.004 |
| B15 | 0.051 |
| B16 | 0.005 |
| B17 | 0.019 |
| B18 | 0.01 |
| B19 | 0.034 |
